From doi:10.1101/2022.02.13.480273

Biological target: GST-RABL2^S37N (Chlamydomonas reinhardtii)
Assay: SEC

B1: ARL3^T30N (bacterially expressed) (natural protein)
chain: MGLLSLIRGLKKKEGEARILVLGLDNAGKNTILKALSEEDITTITPTQGFNIKSLSRDGFNLKIWDIGGQKSIRPYWRNYFDQTDALIYVIDSADSKRLSESEFELTELLQEEKMTGVPLLVFANKQDLVGALAADEIASTLDLTSIRDRPWQIQACSAKQGTGLKEGMEWMMKQVK
  stoichiometry N: 1
